Experimental data from article PMC4104448 (2014).
One block for each binder: values may come before it.

B1: Biotinylated human β-glucocerebrosidase (residues 40A-536R) (enzyme)
chain: ARPCIPKSFGYSSVVCVCNATYCDSFDPPTFPALGTFSRYESTRSGRRMELSMGPIQANHTGTGLLLTLQPEQKFQKVKGFGGAMTDAAALNILALSPPAQNLLLKSYFSEEGIGYNIIRVPMASCDFSIRTYTYADTPDDFQLHNFSLPEEDTKLKIPLIHRALQLAQRPVSLLASPWTSPTWLKTNGAVNGKGSLKGQPGDIYHQTWARYFVKFLDAYAEHKLQFWAVTAENEPSAGLLSGYPFQCLGFTPEHQRDFIARDLGPTLANSTHHNVRLLMLDDQRLLLPHWAKVVLTDPEAAKYVHGIAVHWYLDFLAPAKATLGETHRLFPNTMLFASEACVGSKFWEQSVRLGSWDRGMQYSHSIITNLLYHVVGWTDWNLALNPEGGPNWVRNFVDSPIIVDITKDTFYKQPMFYHLGHFSKFIPEGSQRVGLVASQKNDLDAVALMHPDGSAVVVVLNRSSKDVPLTIKDPAVGFLETISPGYSIHTYLWRRQ
modifications: biotin (in vivo biotinylated by BirA)

Tests used:
H150T mutant LIMP-2 [1] = biological target: T1, H150T mutant LIMP-2 (human, UniProt Q14108 28-432, H150T); assay: SPR; pH 6.5
T1 sequence: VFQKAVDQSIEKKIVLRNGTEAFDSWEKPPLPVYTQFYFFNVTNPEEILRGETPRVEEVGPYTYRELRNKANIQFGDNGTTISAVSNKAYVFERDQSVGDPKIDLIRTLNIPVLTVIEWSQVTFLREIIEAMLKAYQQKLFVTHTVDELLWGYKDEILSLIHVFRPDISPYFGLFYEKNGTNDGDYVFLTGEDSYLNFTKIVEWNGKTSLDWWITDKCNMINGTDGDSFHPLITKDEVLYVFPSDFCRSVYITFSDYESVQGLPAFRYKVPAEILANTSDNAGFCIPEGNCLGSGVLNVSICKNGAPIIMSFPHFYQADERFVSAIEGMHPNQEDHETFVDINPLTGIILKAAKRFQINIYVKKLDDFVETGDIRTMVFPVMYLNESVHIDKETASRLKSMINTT

H150T mutant LIMP-2 [2] = biological target: T1, H150T mutant LIMP-2; assay: SPR; pH 5.5
[3] = biological target: B1; assay: SPR; 2 mM mannose
[4] = biological target: T2, Biotinylated human CI-MPR domains I-XV (residues 41Q-G2293) (human, UniProt P11717 41-2293, biotin (in vivo biotinylated by BirA)); assay: SPR; 2 mM mannose
[5] = biological target: B1; assay: SPR; 2 mM M6P
[6] = biological target: B1; assay: SPR; 2 mM G6P
[7] = biological target: T2, Biotinylated human CI-MPR domains I-XV …; assay: SPR; 2 mM G6P
[8] = biological target: B1; assay: SPR
[9] = biological target: B1; assay: SPR; pH 6.5
[10] = biological target: T2, Biotinylated human CI-MPR domains I-XV …; assay: SPR; buffer without sugar
[11] = biological target: T2, Biotinylated human CI-MPR domains I-XV …; assay: SPR; with 2 mM mannose

T2 sequence (P11717 41-2293): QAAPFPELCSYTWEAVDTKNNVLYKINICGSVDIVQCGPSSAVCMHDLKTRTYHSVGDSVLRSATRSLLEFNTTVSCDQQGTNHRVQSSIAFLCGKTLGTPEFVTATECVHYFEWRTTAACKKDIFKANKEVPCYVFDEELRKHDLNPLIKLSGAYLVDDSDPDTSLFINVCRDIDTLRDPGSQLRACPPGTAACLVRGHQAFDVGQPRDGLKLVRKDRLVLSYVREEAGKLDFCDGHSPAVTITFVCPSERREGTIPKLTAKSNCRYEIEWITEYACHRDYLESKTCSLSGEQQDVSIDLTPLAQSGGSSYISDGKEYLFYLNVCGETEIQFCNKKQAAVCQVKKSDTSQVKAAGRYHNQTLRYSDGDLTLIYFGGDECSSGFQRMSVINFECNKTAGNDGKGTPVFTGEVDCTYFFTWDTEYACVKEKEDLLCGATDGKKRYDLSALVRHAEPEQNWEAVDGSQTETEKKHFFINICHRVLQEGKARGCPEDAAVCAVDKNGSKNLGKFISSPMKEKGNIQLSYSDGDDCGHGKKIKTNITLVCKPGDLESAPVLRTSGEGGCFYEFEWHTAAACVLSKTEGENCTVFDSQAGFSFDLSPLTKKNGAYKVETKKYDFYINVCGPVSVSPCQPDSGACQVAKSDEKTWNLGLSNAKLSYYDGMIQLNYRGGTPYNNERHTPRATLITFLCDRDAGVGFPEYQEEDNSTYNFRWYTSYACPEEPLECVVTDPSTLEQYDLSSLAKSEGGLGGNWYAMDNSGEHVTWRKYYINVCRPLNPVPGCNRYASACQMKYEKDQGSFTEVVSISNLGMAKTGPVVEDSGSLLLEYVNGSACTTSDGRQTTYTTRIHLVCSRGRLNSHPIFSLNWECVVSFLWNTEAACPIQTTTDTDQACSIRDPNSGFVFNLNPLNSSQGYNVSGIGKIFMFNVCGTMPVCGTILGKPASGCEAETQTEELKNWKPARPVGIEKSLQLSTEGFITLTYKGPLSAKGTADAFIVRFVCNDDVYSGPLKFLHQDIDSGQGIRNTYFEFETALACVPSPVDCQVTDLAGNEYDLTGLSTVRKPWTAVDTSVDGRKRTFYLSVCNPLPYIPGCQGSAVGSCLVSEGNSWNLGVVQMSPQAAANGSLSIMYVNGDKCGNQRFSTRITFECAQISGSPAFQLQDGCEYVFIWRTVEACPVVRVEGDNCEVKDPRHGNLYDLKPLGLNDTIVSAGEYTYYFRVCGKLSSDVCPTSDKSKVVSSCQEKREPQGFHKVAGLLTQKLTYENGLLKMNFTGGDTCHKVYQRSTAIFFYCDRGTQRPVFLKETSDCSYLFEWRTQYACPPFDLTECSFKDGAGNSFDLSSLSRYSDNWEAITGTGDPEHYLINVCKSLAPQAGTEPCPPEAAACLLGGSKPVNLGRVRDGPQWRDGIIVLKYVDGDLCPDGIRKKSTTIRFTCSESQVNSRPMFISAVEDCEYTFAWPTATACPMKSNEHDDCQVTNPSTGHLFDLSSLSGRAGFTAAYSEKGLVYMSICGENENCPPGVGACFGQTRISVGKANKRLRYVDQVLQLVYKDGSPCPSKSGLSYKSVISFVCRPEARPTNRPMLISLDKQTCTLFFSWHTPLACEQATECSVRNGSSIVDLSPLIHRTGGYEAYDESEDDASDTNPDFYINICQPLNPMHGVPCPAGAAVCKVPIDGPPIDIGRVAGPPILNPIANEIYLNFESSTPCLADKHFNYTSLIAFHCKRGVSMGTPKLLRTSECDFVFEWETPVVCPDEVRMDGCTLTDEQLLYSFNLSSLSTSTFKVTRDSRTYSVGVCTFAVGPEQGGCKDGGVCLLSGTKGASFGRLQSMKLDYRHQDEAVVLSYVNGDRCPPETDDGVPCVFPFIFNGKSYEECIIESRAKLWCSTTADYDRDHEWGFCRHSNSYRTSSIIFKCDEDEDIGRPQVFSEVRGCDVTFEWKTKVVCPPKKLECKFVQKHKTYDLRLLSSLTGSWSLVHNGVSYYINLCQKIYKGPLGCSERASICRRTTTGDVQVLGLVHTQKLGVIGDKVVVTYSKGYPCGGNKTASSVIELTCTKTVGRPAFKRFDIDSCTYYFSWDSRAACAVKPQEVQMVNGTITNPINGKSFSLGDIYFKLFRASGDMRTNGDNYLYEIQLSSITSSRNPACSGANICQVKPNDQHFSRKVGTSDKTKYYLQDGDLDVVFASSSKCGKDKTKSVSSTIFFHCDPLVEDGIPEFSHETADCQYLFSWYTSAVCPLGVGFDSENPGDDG

Binder: B1
- Kd (H150T mutant LIMP-2 [1]): 2300 nM
- Kd (H150T mutant LIMP-2 [2]): 2100 nM

B2: Human LIMP-2 luminal domain (residues 28-431) produced from HEK293T cells, with full glycosylation (domain or fragment)
chain: VFQKAVDQSIEKKIVLRNGTEAFDSWEKPPLPVYTQFYFFNVTNPEEILRGETPRVEEVGPYTYRELRNKANIQFGDNGTTISAVSNKAYVFERDQSVGDPKIDLIRTLNIPVLTVIEWSQVHFLREIIEAMLKAYQQKLFVTHTVDELLWGYKDEILSLIHVFRPDISPYFGLFYEKNGTNDGDYVFLTGEDSYLNFTKIVEWNGKTSLDWWITDKCNMINGTDGDSFHPLITKDEVLYVFPSDFCRSVYITFSDYESVQGLPAFRYKVPAEILANTSDNAGFCIPEGNCLGSGVLNVSICKNGAPIIMSFPHFYQADERFVSAIEGMHPNQEDHETFVDINPLTGIILKAAKRFQINIYVKKLDDFVETGDIRTMVFPVMYLNESVHIDKETASRLKSMINT
modifications: full glycosylation
- Kd [3]: 2830 nM
- Kd [4]: 1200 nM
- Kd [5]: 2100 nM
- Kd [6]: 1800 nM
- Kd [7]: 1160 nM
- Kd [8]: 2060 nM

B5: Human LIMP-2 luminal domain (residues 28-431) produced from HEK293S (GnTI-) cells, with limited glycosylation (domain or fragment)
chain: VFQKAVDQSIEKKIVLRNGTEAFDSWEKPPLPVYTQFYFFNVTNPEEILRGETPRVEEVGPYTYRELRNKANIQFGDNGTTISAVSNKAYVFERDQSVGDPKIDLIRTLNIPVLTVIEWSQVHFLREIIEAMLKAYQQKLFVTHTVDELLWGYKDEILSLIHVFRPDISPYFGLFYEKNGTNDGDYVFLTGEDSYLNFTKIVEWNGKTSLDWWITDKCNMINGTDGDSFHPLITKDEVLYVFPSDFCRSVYITFSDYESVQGLPAFRYKVPAEILANTSDNAGFCIPEGNCLGSGVLNVSICKNGAPIIMSFPHFYQADERFVSAIEGMHPNQEDHETFVDINPLTGIILKAAKRFQINIYVKKLDDFVETGDIRTMVFPVMYLNESVHIDKETASRLKSMINT
modifications: N-linked P-Man9GlcNAc2 (with terminal mannose 6-phosphate) at N325; sugars on all nine N-linked glycosylation sites, limited processing
- Kd [10]: 1800 nM
- Kd [11]: 1880 nM

The remaining lines, values ahead:

- Kd [9]: 1200 nM
B3: Wild-type LIMP-2 (soluble luminal domain; producing cells not stated for the experiment) (domain or fragment)
chain: VFQKAVDQSIEKKIVLRNGTEAFDSWEKPPLPVYTQFYFFNVTNPEEILRGETPRVEEVGPYTYRELRNKANIQFGDNGTTISAVSNKAYVFERDQSVGDPKIDLIRTLNIPVLTVIEWSQVHFLREIIEAMLKAYQQKLFVTHTVDELLWGYKDEILSLIHVFRPDISPYFGLFYEKNGTNDGDYVFLTGEDSYLNFTKIVEWNGKTSLDWWITDKCNMINGTDGDSFHPLITKDEVLYVFPSDFCRSVYITFSDYESVQGLPAFRYKVPAEILANTSDNAGFCIPEGNCLGSGVLNVSICKNGAPIIMSFPHFYQADERFVSAIEGMHPNQEDHETFVDINPLTGIILKAAKRFQINIYVKKLDDFVETGDIRTMVFPVMYLNESVHIDKETASRLKSMINT

- Kd [8]: 3000 nM
B4: Human LIMP-2 luminal domain produced from HEK293S (GNTI-) cells and deglycosylated with endoglycosidase F1 (domain or fragment)
chain: VFQKAVDQSIEKKIVLRNGTEAFDSWEKPPLPVYTQFYFFNVTNPEEILRGETPRVEEVGPYTYRELRNKANIQFGDNGTTISAVSNKAYVFERDQSVGDPKIDLIRTLNIPVLTVIEWSQVHFLREIIEAMLKAYQQKLFVTHTVDELLWGYKDEILSLIHVFRPDISPYFGLFYEKNGTNDGDYVFLTGEDSYLNFTKIVEWNGKTSLDWWITDKCNMINGTDGDSFHPLITKDEVLYVFPSDFCRSVYITFSDYESVQGLPAFRYKVPAEILANTSDNAGFCIPEGNCLGSGVLNVSICKNGAPIIMSFPHFYQADERFVSAIEGMHPNQEDHETFVDINPLTGIILKAAKRFQINIYVKKLDDFVETGDIRTMVFPVMYLNESVHIDKETASRLKSMINT
modifications: glycans trimmed to a single N-acetylglucosamine with endoglycosidase F1
